Consider one protein from paper PMC8461876, “Automation assisted anaerobic phenotyping for metabolic engineering” (Microbial Cell Factories, 2021).

Substrate in the series: O=C1C=CCCC1
The experiment in a line: purified protein. The format is biochemical, Bacillus subtilis. To be noted: 0.15 mM NADPH, 40 mM HEPES pH 7.5, 35 °C, anaerobic (glucose oxidase/glucose), 15 nM enzyme.

B1: enoate reductase YqjM (Bs-YqjM) (Bacillus subtilis subsp. subtilis str. 168) (protein)
chain: MARKLFTPITIKDMTLKNRIVMSPMCMYSSHEKDGKLTPFHMAHYISRAIGQVGLIIVEASAVNPQGRITDQDLGIWSDEHIEGFAKLTEQVKEQGSKIGIQLAHAGRKAELEGDIFAPSAIAFDEQSATPVEMSAEKVKETVQEFKQAAARAKEAGFDVIEIHAAHGYLIHEFLSPLSNHRTDEYGGSPENRYRFLREIIDEVKQVWDGPLFVRVSASDYTDKGLDIADHIGFAKWMKEQGVDLIDCSSGALVHADINVFPGYQVSFAEKIREQADMATGAVGMITDGSMAEEILQNGRADLIFIGRELLRDPFFARTAAKQLNTEIPAPVQYERGW
notes: full gene, N-terminal 6xHis tag (p15TvL), tag cleavage not mentioned; expressed in E. coli LOBSTR BL21(DE3); FMN loaded
The term Km denotes the concentration of substrate that gives half-maximal velocity. On to B1, for which the Michaelis-Menten constant (Km) is 350 ± 60 µM.
